Reference: a protein production outcome set (Wang et al. 2014)

Test: label from the status in PepcDB records

Protein production, not failed:
MSRTILQPGQIEAAANIPPHLHQPSRDLFARRGERLLQLAEGHPMGDYLRLVAGLCRLQQALLDNPPALAPLDPERLRKSREHGMPPLAYDLLVREGAWLPWLDALLAGYPAPANAAVGAALEQLREAEEGQRKAWAIALLSGQFDLLPAALVPFLGAALQVAWSHWLLGLEEGAVVETESRTLCPACGSPPMAGMIRQGGKETGLRYLSCSLCACEWHYVRIKCSHCEESKHLAYLSLEHDGQPAEKAVLRAETCPSCQGYLKQFYLEFDRHADALADDLASLALDMRLAEDGYLRRSPNLLLAPGGE
MSRVAPRDSAAQAASAVAESVRYQGRKASRQGSEQRRQAILDAAMRLIVRDGVRAVRHRAVAAEAQVPLSATTYYFKDIDDLITDTFALFVERNAEALSAFWSSVEGDLQEMAAVLADDPGARGSLVERIVELAVQYVQVQLTERREHLLAEQAFRQEALLNPRLRELADAHQRILSLGAVHFFQVLGSGQPEQDAKVLTSIILQMEYQGLVDGVEQLAVDEMRAILRRYLNLVMGL
MSSARFDSSDRSAWYMGPVSRQEAQTRLQGQRHGMFLVRDSSTCPGDYVLSVSENSRVSHYIINSLPNRRFKIGDQEFDHLPALLEFYKIHYLDTTTLIEPAPRYPSPPMGSVSAPNLPTAEDNLEYVRTLYDFPGNDAEDLPFKKGEILVIIEKPEEQWWSARNKDGRVGMIPVPYVEKLVRSSPHGKHGNRNSNSYGIPEPAHAYAQPQTTTPLPAVSGSPGAAITPLPSTQNGPVFAKAIQKRVPCAYDKTALALEVGDIVKVTRMNINGQWEGEVNGRKGLFPFTHVKIFDPQNPDENE
MSSECDGGSKAVMNGLAPGSNGQDKDMDPTKICTGKGAVTLRASSSYRETPSSSPASPQETRQHESKPGLEPEPSSADEWRLSSSADANGNAQPSSLAAKGYRSVHPNLPSDKSQDSSPLLNEVSSSLIGTDSQAFPSVSKPSSAYPSTTIVNPTIVLLQHNREQQKRLSSLSDPVSERRVGEQDSAPTQEKPTSPGKAIEKRAKDDSRRVVKSTQDLSDVSMDEVGIPLRNTERSKDWYKTMFKQIHKLNRDDDSDLYSPRYSFSEDTKSPLSVPRSKSEMSYIDGEKVVKRSATLPLPARSSSLKSSSERNDWEPPDKKVDTRKYRAEPKSIYEYQPGKSSVLTNEKMSRDISPEEIDLKNEPWYKFFSELEFGKPTNLDKDLSLCQTELEADLEKMETLNKAPSANVPQSSAISPTPEISSETPGYIYSSNFHAVKRESDGAPGDLTSLENERQIYKSVLEGGDIPLQGLSGLKRPSSSASTKVHSRTFNTSNALGPVCKHKKPLSAAKACISEILPSKFKPRLSAPSALLQEQKSILLPSEKAQSCENLCVSGSLNDSKRGLPLQVGGSIENLLMRSRRDYDSKSSSTMSLQEYSTSGRRPCPLSRKAGMQFTMLYRDMHQINRSGLFLGSISSSSSVRDLASHFEKSSLALSRGELGPSQEGSEHIPKHTVSSRITAFEQLIQRSRSMPSLDLSGRLSKSPTPVLSRGSLTSARSAESLLESTKLHPKEMDGMNSSGVYASPTCSNMAHHALSFRGLVPSEPLSTCSDDVDRCSNISTDSREGSGGSVHGDFPKHRLNKCKGTCPASYTRFTTIRKHEQQQTSRQPEWRLDARGDKSTLLRNIYLMSPLPFRLKKPLHHHPRQPSPGDSSGLLVGQKPDLPSQPHQDQPPSGGKPVVPTRLSSRHTMARLSRSSEPSQERPTALEDYPRAINNGNSVPYSDHSLDRNNNPQSELAPSRGDSESPRHFIPADYLESTEEFIRRRHDDKEMRPARAKFDFKAQTLKELPLQKGDIVYIYKQIDQNWYEGEHHGRVGIFPRTYIELLPPAEKAQPKKLTPVQVLEYGEAIAKFNFNGDTQVEMSFRKGERITLLRQVDENWYEGRIPGTSRQGIFPITYVDVIKRPLVKNPVDYMDLPFSSSPSRSATASPQQPQAQQRRVTPDRSQTSQDLFSYQALYSYIPQNDDELELRDGDIVDVMEKCDDGWFVGTSRRTKQFGTFPGNYVKPLYL

Protein production, failed:
MSRLSAAAIELFEDLIRQQVEDKAIPSISYGLVDRDGLMGAGHIQRHDRGFVMGDDTCFRIGSITKTFTAVAVMQLAEKGLVDLDVDVSEYLPGFKPQNPFAGREGGPHGAQISLRKLMSHTAGLVREPKSGHYLDAARPPLADTVAELATSTLKQDPSLGQMHYSNAGIAVAGRVIETLTRKSYAEYVSENILKPLGMDQTSSGLAPGIAERLAPADMWTLEGDSPAPVFDLGGPPAGNIYSTTSDMARYVQCLLRGGFAPDGWQIVSPGSLREMWVPIGKRASGERVANTYGLCFGVGDVDGWTSVGHGGAVYGYSSQMILLPAAGVGVLIFSTLDFSNQIGARLGVEGLRIALAERRMGTLPVRPQGLPPVAADQLVALPGHYRHDTSGEVVEVKAKAGKLFLMGEGVPLQIRPVAGSDFTIDGRIYGHGAEYPHMNLSFPAPGALVWKGVNWSRIDALPAEAVPAEIAPHLGEYGPDFNITYLSYSHGELKCLIEYFCTHGCEPVEAGRFRMRGLLYEEEILEIDAIDDHGRRGIRVGPMFLERRHAPAA
MSRQQNEEDTNSVLFDARNEYYIGNFMGSINFVLPEQGTAGPELLSYMYLSYLAIDSGRIVASDIKEGNSTPLQALRLVHEAFEQPSRTEELLEKLTDKVAGEEDETNIWHLATAIVYCHDGQFENALKILHGSTNLESMALSVQCLLRLQRVDLAKQLVAKMQEISDDATLTQLAQAWVALAQGTEQMQDAFHIYQEFCEKFKPTPALLNGQAVVHLGLERYEEADSVLRESLLKKHNDYDTLINLMVHAHLTGKPTEAITRNLEQLRQFYPKSDFVTDLDKKSAEFDRLCLQYDVEGGEKLLAV
MSRRDQLFSAMTASYVIAVTLAIVIAAIFAPVIWNGVPSGGDDDPSVAVITLRGGTTDANVNAVKQDLREARTNESIEAVVLRVDSPGGPVDSSEEFYLAVNRTASEMPVVAYVEGTAASGGYYGITPADEIVVKPSSNVGSIGVIVQAPLSLIEQVEQQGETFVRSGPDKAQISKDSLREDIEVLQRSFVGTVMRHRGEQLTVSREEVANGGTYLGAQATENGFADRIGDTGLAIERAAALSDDIEGDQYDVVYQGSGGAEFNVIIVPAGAETVQGANNVTYLVHPDNSETTFREPVKYYAVWGIPAEDNNATVIRND
MSRRKKAYQGRKIGSQLLATLESEARKKVGYLQVKTVAEGSNKDYDRTNDFYRGLGFKKLEIFPQLWNPQNPCQILIKKLE
MSRRTTLRRVGLLVLGVNLLLVLLKAGVWLTTGSFAVQSEAVNSAADTAYSLVIVAGLYLTTRPPDFEHPHGHERIEPFVSLFVAAGIFAAGGFVLWNAGTALLTGNISVTQGPAAVLVLAFSAVAKYALYRYCLRAGTDRNSPALIATAKDNRNDILTAGAALVGVGGAMAGYPIADPLAALVVAIGIIYTGIEVVQENVTYLVGGAPPEDLRREILRRALDHPKVSGAHDVIAHYVGPEIDVSLHIEVEGDLTLFEAHDIETAVIKSIEELPEVDDAFIHVDPKELGEWKDDEEVERLADLE
MSRSLVFGTAGLALLLAAGGLLYSFGPDERRARAAPTPPDTTDTSGVYSQRAPSRNGIGKVYMGREISKVMGHRGANWLERPARAEKERPDLLVDSLPLGPSDTVADIGAGTGYLSFRVAPRVPQGNILAVDIQPEMLNMMRERIDERGVDNVTPIRGTVTDPQLPADSVDLAYMVDAYHEFSHPYEMMTALMEDLTPGGRVVLVEYPREDPSIPIKTLHKMTEAQAKKEMRAVGLEWVETKDMLPRQHFMVFRKPVE
MSRSRHCPAVLIAAPASGQGKTTVTAALARLHRNLGRKVRVFKCGPDFLDPMILERASGAPVYQLDLWMIGAEESRRLLWEAAGEADLILIEGVMGLFDGTPSSADLARHFGVPVLAVIDGTAMAQTFGALALGLARYQADLPFAGVLANRVGSLRHAQLLEGSLTEGLRWYGGLSRERGIELPSRHLGLVQASELNDLDTRLDAAAEALGASCDAALPPPVSFAEPEPQACVASLAGVRIGVARDEAFAFIYGANLDLLRNLGAQLVFFSPLHDHELPAVDSLYLPGGYPELHHHALAANAPMCEAIRAHHAQGKPLLAECGGMLYLLDALTDVAGERAELLGLLPGEATMQKRLAALALQAVELPEGTLRGHTYHHSLTSTALEPIARGLSPNGGRGNEAVYRLGRLTASYVHFYFPSCPDAAAALLRP
MSRSTLQPARISRVLPDSIAAEIGFEPGDAIISINGQQPRDLIDYQFLCSDEFLELEVLDAAGRSHQIEIEKDTDEGLGLEFETALFDGLIQCNNRCPFCFIDQQPPGKRESLYYKDDDYRLSFLYGSYLTLTNLSEAEWRRIAQLRLSPLYVSVHATEPDLRRRLLKNERAGLIGEQLHWFRQQQLQIHAQVVVCPDLNDGAQLQRTLMDLAEFHRGDPATVASVAVVPVGLTRFRPTEDELRPVQPADAAATIALVEALQTQFQTELGSRFAWLADEWYLIAGQPLPSASWYEQYPQLENGVGSIRAFISEFERQAATLPSQIEPARRLTWVVGNVVGQAFQPLQARLNAVQGLKVDLVGLASRYWGQTLTVTGLLTGQDLIEVLSDRDLGDGLLLPSLILLHGYRCFLDDLTVAEVEKALHTPIFVAEGITGLLTECLRSPLAATVQDH
MSRSTRSDQNARIRQRLGQPESGWRQRWYTIIFEADTRPGRTFDIVLLVAIIASVAVVMLDSIQAIHARLGTVFTALEWLFTLLFTTEYIMRLSVVRRPLRYVFSFYGIIDFLSIIPTWASFFVPELAFLIDVRLLRLLRVFRILKLTVYFEEAEILMLALSNSRRKIFVFLGTVFIITVILGTIMYVVEGPTHGFTSIPVSMYWAIVTLTTTGFGDMVPKTPIGQFITSITILLGYGIIAFPTGIVGAELAASIIRRPLTTRSCEHCLTEGHEPDATFCKHCGTALPEYRTELATDRRGDDGSRSR
MSRVKNVVELLETKGVDALYLTKKTNVNYISGFPDEEAYAVICKDGNFLVTDSRYMELAEKVCKDFEIINWHNFDRSVAKAVKSVCDKVGIKKLGFERTNIVFDKYEELKNLIEKDNGELIPTENIVETLRYVKDKDEIKNTRKACEIADKALEELIPHIKAGVSEIELATKLEYFMKMNGAQNIGFETILISGAKTSLLHGKPSDKIIEKGDFVLIDYGAMYNGYISDTTRTFIVGGASEKQLEIYNLVKEAQNVGVENMKAGVHATIPDAEIRKVVKKYEDYYYQGIGHGVGRDVHEEPFIGNYGDKIIEEGCIITMEPGIYFPGWGGVRIEDTVLITKNGPERLTKFPKDLMILDK
MSSASGLRRGHPAGGEENMTETDAFYKREMFDPAEKYKMDHRRRGIALIFNHERFFWHLTLPERRGTCADRDNLTRRFSDLGFEVKCFNDLKAEELLLKIHEVSTVSHADADCFVCVFLSHGEGNHIYAYDAKIEIQTLTGLFKGDKCHSLVGKPKIFIIQACRGNQHDVPVIPLDVVDNQTEKLDTNITEVDAASVYTLPAGADFLMCYSVAEGYYSHRETVNGSWYIQDLCEMLGKYGSSLEFTELLTLVNRKVSQRRVDFCKDPSAIGKKQVPCFASMLTKKLHFFPKSNLEHHHHHH
MSSDESSDGLEELQSLKALYGQQEQEKPAKIKRERYIPKASQAKELNYVEVPMEKVLFGDRQRLLTNLAKSVGQKLPNDDEDEQEENPGQAKPGDKRKAAWSDSDDEDLQVGDVKKATKHTGPLNHLRKDKSYKEYLTARFQRTLNQPKWAEKKVKNEDDEDVSSDEELLRTVGFIDRKARNSDLPQKTLNFKRVKDLNRATYAEGNATSIQFHPTSTAALVAGMNGLATIYAVDGQKNERLHNMRFKKFPLACSRIAPCGTRAFFGSVKPFYYSYDLLEAKESKLKLPGAMEFMHRFEVSPCGKFIVTAGKFGAIHLLTAKTNELLHSFKQEGKVKGFTWSSDSKRILVCGSTSNVSVLNLRQNLIEHIFMDDGCIHGESIQLSPNQRLLATGSQEGVVNIYDYESIFASKAPQPEKRFMNLRTAITDLQFNHSSELLAMCSSEAPNAFKLAHFPSATVYSNFPAQNEKVGFVTSMAFSPHSSFLAFATKGKQVPLFRLKYFKGY
